According to paper PMC2815101:

How the values were obtained:
[1] = system: CO/N=C(\C(=O)N[C@@H]1C(=O)N2C(C(=O)O)=C(COC(C)=O)CS[C@H]12)c1csc(N)n1; assay: Michaelis-Menten hydrolysis kinetics, purified enzyme; assay type: biochemical, Escherichia coli; settings: active site (catalytic Ser64)
[2] = system: CC(=O)OCC1=C(C(=O)O)N2C(=O)[C@@H](NC(=O)Cc3cccs3)[C@H]2SC1; assay: as above; assay type: biochemical, Escherichia coli; settings: active site (catalytic Ser64)

Substance: AmpC β-lactamase (Escherichia coli K-12; T86I)
- Km [1]: 295 µM
- kcat [1]: 9.2 s⁻¹

Substance: AmpC β-lactamase (Escherichia coli K-12; E235K)
- Km [1]: 77 µM
- kcat [1]: 6.9 s⁻¹
- Km [2]: 24 µM
- kcat [2]: 84.6 s⁻¹
